Measured values from paper PMC3365014 (PLoS ONE, 2012).

Target: T1, p53 C-terminal domain (p53CTD, residues 293–393) (UniProt P04637 293-393)
T1 construct: p53 C-terminal domain, residues 293–393; 15N-labeled for NMR; also called p53(293–393); full length p53CTD; source: E. coli (C41 for the 15N-labeled protein), purified as described [23]
Experiment: peptide or protein array; Celluspots peptide array, peptides immobilised; 20 µM p53CTD in 1% milk in TBS-T (50 mM Tris pH 7.5, 110 mM NaCl, 0.05% Tween 20), overnight at 4°C; detected with FL-393 anti-p53 antibody
Conditions: both partners purified

T1 sequence (P04637 293-393): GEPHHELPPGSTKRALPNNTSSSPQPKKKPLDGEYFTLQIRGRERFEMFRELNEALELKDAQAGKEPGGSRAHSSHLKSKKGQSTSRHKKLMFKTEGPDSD

binding result: binds
B1: PKCα(271–285), peptide on the array (peptide)
peptide: ASGWYKLLNQEEGEY
notes: Protein Kinase C α isoform, residues 271–285; Immobilised on the array; source: bought: Intavis Celluspots peptide array
